For one test, the target named is RSV F on RSV-A2 virus (Respiratory syncytial virus, RSV-A2, UniProt P03420 26-574). Description: cell-based or functional assay.
The target in test [1] is RSV prefusion F (preF), DS-Cav1 (Respiratory syncytial virus, UniProt P03420 26-513). Description: BLI, IgG on anti-human IgG sensor, 100 nM antigen.
Test [2] has as its target RSV postfusion F (postF), F ΔFP (Respiratory syncytial virus, UniProt P03420 26-513). Description: BLI, IgG on anti-human IgG sensor, 100 nM antigen.

B1: ADI-41557 (antibody, V domains shown)
VH: EVQLLESGPGLVKPSETLSLTCNVSGGSISSYYWSWIRQSPGKGLEWIGHIYDTGYTNYNPSLKSRVTMSVDTSKNRFSLKLDSVTAADTAVYYCARGRGWRNLYNWFDPWGQGTLVTVSS
VL: DIVMTQSPATLSVSPGERATLSCRTSQSFSSMLAWYQQKPGQAPRLLIYGASTRATGIPARFSGSGSATEFTLTISNLQSEDVAVYYCQQYNSWPLTFGGGTKVEIK
notes: also called Ab 839; Antibody Number 839
Consider B1, for which the “Neutralization IC50 (RSV subtype A)” value in the test with RSV F on RSV-A2 virus was more than 25 µg/mL. Further, the Kd in test [1] amounted to 30.9 nM; in test [2] it was 86.1 nM.

B2: ADI-41554 (antibody, V domains shown)
VH: EVQLVESGGGLVQPGGSLRLSCAASGFTFSSYPMNWVRQGPGKGLEWVSSISSSGASPYYADSVKGRFTISRDNSKNTLYLQMNSLRADDTAVYYCAREDYYYYYMDVWGKGTTVTVSS
VL: ETTLTQSPSTLSASVGDRVTITCRASESISSWLAWYQQKPGKAPKLLIFKASTVQSGVPSRFSGSGSGTEFTLTISSLQPDDFATYYCQQYNSYLLTFGGGTKVEIK
notes: also called Ab 836; Antibody Number 836
Consider B2, for which, in the test with RSV F on RSV-A2 virus, the “Neutralization IC50 (RSV subtype A)” value is more than 25 µg/mL. Moreover, the values for the Kd in test [1] and in test [2] were 1.35 nM and 1.07 nM, respectively.

B3: ADI-41570 (antibody, V domains shown)
VH: QVQLVQSGAEVKKPGSSVKVSCMASGGTFSNSAINWVRQAPGQGLEWMGGTIPIFGAANYAQRFQARVTITADKSTSTAYMELTSLRSDDTAVYYCVRTPHRSSDHIWGSYRYFDSWGQGTLVTVSS
VL: QSVVTQEPSVSAAPGQKITISCSGSTSNIGINYVSWYQQFPGTAPKLLIYDNDKRPSGIPDRFSGSKSGTSATLGITGLQAGDEADYYCGTWDSSLSAGHIFGGGTKVTVL
notes: also called Ab 848; Antibody Number 848
On to B3, for which the “Neutralization IC50 (RSV subtype A)” value with RSV F on RSV-A2 virus came out at 25 µg/mL. Besides, the Kd in test [1] is 2.97 nM; in test [2] it was 1.12 nM.

B4: ADI-41808 (antibody, V domains shown)
VH: QVQLVQSGAELKKPGSSVRISCKVSGVTSDNYAITWVRQAPGQGLEWMGRVIPIFPVPQYAQKFQGRVTLSADKSTRTAYLELHSLRSEDTATYYCATHRPSDSWGQGTLVTVSS
VL: DIRVTQSPSTLSASVGDRVTITCRASQNINSWLAWYQQKPGKAPKLLIFKASSLESGVPARFSGSGFGTEFTLTITSLQPDDFASYYCQQYDTYPYPFGQGTKVEIK
notes: also called Ab 916; Antibody Number 916
For B4, in the test with RSV F on RSV-A2 virus, the “Neutralization IC50 (RSV subtype A)” value is more than 25 µg/mL. The Kd in test [1] stood at 13.9 nM; in test [2], 22.5 nM.

B5: ADI-41807 (antibody, V domains shown)
VH: EVQLLESGPALVKPTQTLTLTCTFSGFSLTTTRMSVSWIRQPPGKALEWLARIDWDDDKYYSTSLKTRLTISKDTSKNQVVLTMTNMDPVDTATYFCARVNVYAANGYYSYYLDYWGQGTLVTVSS
VL: DIVMTQTPSSLSASVGDRVTITCRTSQSSSRYLNWYQKEPGKAPRLLIYLASALRSGVPSRFSGSGSGTDFTLTISSLQSEDFATYYCQQTYSIPWTFGQGTKVEIK
With B5, the “Neutralization IC50 (RSV subtype A)” value in the test with RSV F on RSV-A2 virus is more than 25 µg/mL. Besides, the Kd in test [1] was determined as 1.5 nM; in test [2], 1.19 nM.

B6: ADI-41569 (antibody, V domains shown)
VH: EVQLLESGAEVKKPGSSVKVSCKASGGTFSTYAISWVRQAPGQGLEWMGGIIPVLGTTKYAQKFQDRVTITADESTSTAYMDLSGLRSDDTAVYYCARGVWGDCGRASCLFDWYFDLWGRGTLVTVSS
VL: EIVMTQSPATLSVSPGERVTLSCSASQTVSSNLAWYQQKPGQAPRLLIYGASIRATDIPARFSGSGSRTEFTLTISSLQSEDFAVYYCQQYNNRPPLTFGGGTKVEIK
notes: also called Ab 847; Antibody Number 847
For B6, the “Neutralization IC50 (RSV subtype A)” value with RSV F on RSV-A2 virus was more than 25 µg/mL. Moreover, the Kd in test [1] worked out at 3.3 nM; in test [2], 1.61 nM.

B7: ADI-41804 (antibody, V domains shown)
VH: QVQLQQWGAGLLKPSETLSLTCSVLGGSFSGYYWTWIRQPPGKGLEWIGEITHDGSSNYNPSLNSRVTISVDTSNYQFSLKMRSVTAADTAVYYCARSPDLTIFGGLYFYYGISVWGQGTTVTVSS
VL: DIQMTQSPSSLSASMGDRVTITCRASQDISNYLAWYQQKPGKVPNLLIYAASTLQGGVPSRFSGSGSGTDFTLTISSLQPEDVAIYYCQKYKSAPRTFGQGTKVEIK
In the case of B7, the “Neutralization IC50 (RSV subtype A)” value in the test with RSV F on RSV-A2 virus was more than 25 µg/mL. For the same molecule, the Kd in test [1] came out at 0.331 nM; in test [2], 0.436 nM.

B8: ADI-41561 (antibody, V domains shown)
VH: QVQLVQSGPTLVKPTQTLTLTCSFSGFSLTNTGVGVGWIRQPPGKALEWLALIYWDDDKRYRPSLKSRLTITKDTSKSQVVLTMTNMDPLDTATYYCAHRRSAYDPIYFDYWGQGALVTVSS
VL: DIRVTQSPSSVSASVGDRVTITCRASRSINNWLAWYQQKPGKAPKLLIYAASSLQSGVPSRFSGSGYGTDFTLTISSLQPEDFATYYCQQAHSFPSITFGQGTRLEIK
On to B8, for which, in the test with RSV F on RSV-A2 virus, the “Neutralization IC50 (RSV subtype A)” value is more than 25 µg/mL. The Kd was found to be 3.33 nM in test [1] and 0.516 nM in test [2].

B9: ADI-41555 (antibody, V domains shown)
VH: EVQLVESGPGLVKPSQTLSLTCSVSGGSISSGIHYWSWIRQHPGKGLEWIGYIYYSGSTYYNPSLESRITISVDTSKNQFSLKVSSVTAADTAVYYCARVNRASRMTTFGVANERSIYYFMDVWGKGTTVTVSS
VL: ETTLTQSPATLSLSPGERATLSCRATQSVGNYLAWYQQKPGQAPRLLIHDASNRATGIPARFSGSGSGTDFTLTISSLEPEDFAVYYCQLRINWLFTFGPGTKVEIK
In the case of B9, the “Neutralization IC50 (RSV subtype A)” value in the test with RSV F on RSV-A2 virus is 25 µg/mL. Besides, the Kd in test [1] turned out to be 5.69 nM; in test [2] it was 1.12 nM.

B10: ADI-41552 (antibody, V domains shown)
VH: EVQLLESGGGLVQPGGSLRLSCAASGFTFSPYSMNWVRQAPGKGLEWVSYISRSGSFKYYADSVKGRFTISRDDAKNSLYLHMNSLRDDDTAVYYCVSYCSSATCHQRFDYWGQGTLVTVSS
VL: EIVLTQSPATLSLSPGERATLSCRASQSVNSYLAWYQQKPGQAPRLLIYDASNRATGIPARFSGSGSGTDFTLTISSLEPEDFAVYYCQERNSWPKLTFGGGTKVEIK
Regarding B10, the “Neutralization IC50 (RSV subtype A)” value with RSV F on RSV-A2 virus is more than 25 µg/mL. Further, the Kd in test [1] turned out to be 3.44 nM; in test [2], 0.522 nM.

B11: ADI-41811 (antibody, V domains shown)
VH: QVQLQQSGPRLVKPSHTLSLTCVISGDSVSSGSAAWSWIRQSPSRGLEWLGRTYYRSKWYYDYAVSVKGRIIIQPDTSKNQFSLQLNSVSPEDTAVYYCARDPDSGNYFHYYGMDVWGQGTTVTVSS
VL: DIVMTQSPATLSLSPGERATLSCRASQSVDVYFAWYQQKPGQAPRLLIYDASKRASGVPARFSGSASGTDFTLTISSLEPEDFAVYYCQQRAKWPPYTFGQGTKLEIK
In the case of B11, the “Neutralization IC50 (RSV subtype A)” value with RSV F on RSV-A2 virus is more than 25 µg/mL. Besides, the Kd is 1.64 nM in test [1] and 0.744 nM in test [2].

B12: ADI-41558 (antibody, V domains shown)
VH: EVQLLESGGGLVKPGGSLRLSCEVSGFPFSDYYVSWIRQAPGKGLEWLSYSSRGGIYTNYADSVKGRFTISRDNDKNSLFLQMNSLRAEDTAVYYCARDRSDIWSGRVGFDYWGQGTLVTVSS
VL: DIVMTQSPATLSLSPGERATLSCRASQSVSSSYLAWYQQKPGQAPRLLIYGASSRATGIPDRFSGSGSGTDFTLTISRLEPEDFAVYYCQQYNKSPPGYIFGPGTKVDIK
notes: also called Ab 840; Antibody Number 840
With B12, in the test with RSV F on RSV-A2 virus, the “Neutralization IC50 (RSV subtype A)” value was more than 25 µg/mL. In addition, the values for the Kd in test [1] and in test [2] were 3.02 nM and 0.7 nM, respectively.

B13: ADI-41564 (antibody, V domains shown)
VH: QVQLVQSGAEVKKPGSSVKVSCKAFGGTLRRYALSWVRQAPGQGLEWMGGIIPVFGTRRYAQKFQGRITITADGSTSTASMEVSSLRFEDTAIYYCATVYFDFVSGPPPTYYYYYMDVWGKGTTVTVSS
VL: DIVMTQSPGTLSLSPGERATLSCRASQSVSSSYLAWYQQKPGQAPRLLIYGASSRATGIPDRFSGSGSGTDFTLTISRLEPEDFAVYYCQQYDSSLRVLTFGGGTKVDIK
notes: also called Ab 844; Antibody Number 844
B13: the “Neutralization IC50 (RSV subtype A)” value with RSV F on RSV-A2 virus is more than 25 µg/mL. The Kd stood at 4.44 nM in test [1] and 0.596 nM in test [2].

The values above are taken from patent publication US20260258115A1 (MAPP BIOPHARMACEUTICAL, published 2026).
